Paper PMC11687307, “The calcium-binding protein S100A1 binds to titin’s N2A insertion sequence in a pH-dependent manner” (The Journal of General Physiology, 2024)

B1: S100A1 (mouse) (natural protein)
chain: MGSELESAMETLINVFHAHSGQEGDKYKLSKKELKDLLQTELSGFLDVQKDADAVDKVMKELDENGDGEVDFKEYVVLVAALTVACNNFFWETS
notes: S100A1, mouse; No tag is named; source: E. coli BL21(DE3), purified (Capto-Q anion exchange, phenyl Sepharose)
B2: UN2A, unique insertion sequence of the N2A region of titin (mouse, amino acids 8539-8655) (domain or fragment)
chain: DERKKQEKIEGDLRAMLKKTPALKKGSGEEEEIDIMELLKNVDPKEYEKYARMYGITDFRGLLQAFELLKQSQEEETHRLEIEELEKSERDEKEFEELVAFIQQRLTQTEPVTLIKD
notes: titin, mouse, UN2A region between Ig domains I80 and I81, amino acids 8539-8655; Gene synthesised by GeneArt; No tag is named; source: E. coli BL21(DE3) pLysS, purified (Capto-Q anion exchange, SEC)

Key:
Conditions in all cases: both partners purified
[1] = target: B2; assay: SPR; UN2A immobilised on carboxyl sensor (OpenSPR), S100A1 injected at 5 to 100 µM; 25°C; 250 mM NaCl, 20 mM HEPES, 0.05% Tween; pCa 5, pH 7.4; 1:1 model
[2] = target: B2; assay: SPR; UN2A immobilised on carboxyl sensor (OpenSPR), S100A1 injected; 25°C; pCa 3, pH 6.5; 1:1 model
[3] = target: B2; assay: SPR; UN2A immobilised on carboxyl sensor (OpenSPR), S100A1 injected at 5 to 100 µM; 25°C; 250 mM NaCl, 20 mM HEPES, 0.05% Tween; pCa 5, pH 6.0; 1:1 model
[4] = target: B2; assay: SPR; UN2A immobilised on carboxyl sensor (OpenSPR), S100A1 injected at 5 to 100 µM; 25°C; 250 mM NaCl, 20 mM HEPES, 0.05% Tween; pCa 3, pH 6.0; 1:1 model
[5] = target: B2; assay: SPR; UN2A immobilised on carboxyl sensor (OpenSPR), S100A1 injected at 5 to 100 µM; 25°C; 250 mM NaCl, 20 mM HEPES, 0.05% Tween; pCa 3, pH 7.4; 1:1 model
S100A1 (mouse) = target: B1; assay: co-IP; purified proteins, 500 µg each, with anti-S100A1 antibody overnight at 4°C, captured on magnetic beads; 250 mM NaCl, 20 mM HEPES, 1 mM Ca^2+, pH 6; SDS-PAGE, silver staining, densitometry

Kd [1] | Kd [2] | Kd [3] | Kd [4] | Kd [5] | band intensity of UN2A relative to the S100A1 band (densitometry) (S100A1 (mouse)) | binding ratio of UN2A to S100A1 in the complex (densitometry) (S100A1 (mouse)) | Binder
285 µM | 9.95 µM | 174 µM | 5 µM | 21.6 µM | – | – | B1
– | – | – | – | – | 25% | ~0.25 UN2A per S100A1 | B2
